Experimental data from US20060246084A1.

Key:
[1] = molecular target: synthetic fragment of the mouse TLR-2 extracellular domain (mouse)
[2] = molecular target: receptors of human cells in the presence of IFN-α2 (human) (UniProt P01563); assay: 125I-LcrV68-326 plus unlabelled IFN-α2 on U937 cells
[3] = molecular target: receptors of human cells in the presence of IFN-α2 (human) (UniProt P01563); assay: 125I-LcrV68-326 plus unlabelled IFN-α2 on human monocytes
[4] = molecular target: receptors of human cells in the presence of IFN-α2 (human) (UniProt P01563); assay: 125I-LcrV68-326 plus unlabelled IFN-α2 on human thymocytes
[5] = molecular target: receptors of human cells in the presence of IFN-α2 (human) (UniProt P01563); assay: 125I-LcrV68-326 plus unlabelled IFN-α2 on human neutrophils
[6] = molecular target: IFN-γ receptor on human cells (no IFN-γ added) (human) (UniProt P15260); assay: 125I-LcrV68-326 alone on U937 cells
IFN-γ receptor on human cells (no IFN-γ added) (human), sequence (P15260 18-489): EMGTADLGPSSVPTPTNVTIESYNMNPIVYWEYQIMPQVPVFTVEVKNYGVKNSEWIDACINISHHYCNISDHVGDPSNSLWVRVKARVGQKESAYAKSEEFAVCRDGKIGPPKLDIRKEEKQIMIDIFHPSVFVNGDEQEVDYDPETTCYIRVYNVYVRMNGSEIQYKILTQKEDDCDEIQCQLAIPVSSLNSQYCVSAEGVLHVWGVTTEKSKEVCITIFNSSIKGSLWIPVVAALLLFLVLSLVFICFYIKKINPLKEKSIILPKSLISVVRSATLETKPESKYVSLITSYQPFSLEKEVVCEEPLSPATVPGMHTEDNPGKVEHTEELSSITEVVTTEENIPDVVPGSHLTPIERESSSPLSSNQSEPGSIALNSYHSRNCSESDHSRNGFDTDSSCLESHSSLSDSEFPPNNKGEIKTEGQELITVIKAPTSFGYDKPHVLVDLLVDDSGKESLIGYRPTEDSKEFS

[7] = molecular target: IFN-γ receptor on human cells (no IFN-γ added) (human) (UniProt P15260); assay: 125I-LcrV68-326 alone on human monocytes
[8] = molecular target: IFN-γ receptor on human cells (no IFN-γ added) (human) (UniProt P15260); assay: 125I-LcrV68-326 alone on human thymocytes
[9] = molecular target: IFN-γ receptor on human cells (no IFN-γ added) (human) (UniProt P15260); assay: 125I-LcrV68-326 alone on human neutrophils
[10] = molecular target: human TLR-2 receptor on CD14-positive human thymic epithelial VTEC2.HS cells (human) (UniProt O60603); assay: Scatchard analysis, 125I radioligand on VTEC2.HS cells
human TLR-2 receptor on CD14-positive human thymic epithelial VTEC2.HS cells (human), sequence (O60603 21-784): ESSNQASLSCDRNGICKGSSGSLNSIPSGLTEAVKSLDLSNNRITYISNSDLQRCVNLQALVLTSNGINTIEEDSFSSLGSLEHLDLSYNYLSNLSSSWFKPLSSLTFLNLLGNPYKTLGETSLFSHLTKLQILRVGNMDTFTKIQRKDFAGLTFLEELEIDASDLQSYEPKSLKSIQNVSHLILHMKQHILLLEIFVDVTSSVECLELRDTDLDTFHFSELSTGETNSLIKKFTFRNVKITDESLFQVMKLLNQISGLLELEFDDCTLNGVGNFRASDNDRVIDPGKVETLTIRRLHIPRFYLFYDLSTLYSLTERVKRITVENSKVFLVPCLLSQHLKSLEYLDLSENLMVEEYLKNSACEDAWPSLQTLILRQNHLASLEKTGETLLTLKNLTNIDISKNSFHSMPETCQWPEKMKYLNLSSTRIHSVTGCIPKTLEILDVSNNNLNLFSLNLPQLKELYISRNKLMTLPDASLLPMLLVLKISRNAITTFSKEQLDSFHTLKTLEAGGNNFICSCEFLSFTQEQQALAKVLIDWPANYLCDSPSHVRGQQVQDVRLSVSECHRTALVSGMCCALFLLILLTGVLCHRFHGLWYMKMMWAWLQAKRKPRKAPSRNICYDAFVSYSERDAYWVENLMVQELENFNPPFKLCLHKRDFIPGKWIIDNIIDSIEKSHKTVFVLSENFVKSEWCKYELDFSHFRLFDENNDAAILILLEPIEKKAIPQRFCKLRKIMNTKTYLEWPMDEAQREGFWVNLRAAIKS

[11] = molecular target: IFN-γ C-terminal peptide … (human)
[12] = molecular target: human TLR-2 receptor on CD14-positive human thymic epithelial VTEC2.HS cells (human) (UniProt O60603); assay: 125I radioligand on VTEC2.HS cells; binding not detectable

LcrV68-326, N-terminally truncated LcrV (from UniProt P0C7U7 68-326)
Kd [1]: 0.55 nM | Kd [2]: 1 mM | Kd [3]: 1 mM | Kd [4]: 1 mM | Kd [5]: 1 mM

LcrV68-326, N-terminally truncated LcrV (from UniProt P0C7U7 68-326) (other; other documents disagree on this pair)
Kd [6]: 1 mM | Kd [7]: 1 mM | Kd [8]: 1 mM | Kd [9]: 1 mM | Kd [10]: 0.8 nM

LcrV (V antigen) of Yersinia pestis KIM, recombinant, freed of hexahistidine (from UniProt P0C7U7 1-326)
Kd [11]: 6 pM

LcrV (V antigen) of Yersinia pestis KIM, recombinant, freed of hexahistidine (from UniProt P0C7U7 1-326) (other; other documents disagree on this pair)
Kd [12]: 1 mM
